From the supplement of paper PMC10567573

B1: STK38L (parent)
chain: RQLAYSTVGTPDYIAPEVFMQTGY

Variants of: B1
Assay: protein stability index of a GFP-peptide fusion (GPS, HEK-293T) (PSI 1-6); higher = more stable
Settings: c terminus: a fixed tail appended
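Also: lentivirally expressed fusions sorted by FACS into six bins by GFP to DsRed ratio, PSI derived from sequencing read proportions per bin multiplied by bin number.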

Point of comparison: V18H, protein stability index 2.51. Against it:
- E17M — lower, 1.68
- E17Q — lower, 2.22
- E17F — lower, 1.9
- E17C — lower, 1.8
- E17P — lower, 2.12
- E17I — lower, 2.17
- E17R — higher, 2.71
- E17N — lower, 1.97
- E17D — higher, 2.79
- E17L — lower, 1.76
- E17W — lower, 1.44
- E17Y — lower, 1.78
- Y24P — higher, 3.25
- Y24Q — higher, 3.53
- Y24F — lower, 2.19
- Y24A — higher, 3.35
- Y24D — higher, 4.18
- Y24T — higher, 3.42
- Y24R — higher, 3.06
- Y24N — higher, 3.35
- Y24L — lower, 2.44
- Y24I — higher, 2.63
- Y24M — higher, 2.67
- Y24G — higher, 3.43
- Y24E — higher, 4.54
- Y24W — lower, 2.33
- A4M — higher, 2.6
- A4G — higher, 2.86
- A4V — lower, 2.02
- A4Y — lower, 2.17
- A4Q — higher, 3.1
- A4D — lower, 2.38
- A4N — higher, 2.52
- A4L — higher, 2.69
- A4S — higher, 2.65
- A4E — higher, 2.8
- A4R — higher, 2.75
- A4C — lower, 2.14
- A4I — lower, 1.77
- A15E — higher, 3.15
- A15N — lower, 2.21
- A15R — lower, 2.27
- A15M — lower, 2.19
- A15T — lower, 2.4
- A15Q — higher, 3.4
- A15V — lower, 2.28
- A15G — higher, 3.12
- A15L — lower, 2.3
- A15P — higher, 3.29
- A15D — higher, 2.93
- A15Y — lower, 1.68
- A15W — lower, 1.58
- A15K — lower, 2.46
- T22R — higher, 2.85
- T22W — lower, 1.36
- T22Y — lower, 2.47
- T22G — higher, 3.65
- T22F — lower, 2.09
- T22Q — higher, 3.04
- T22M — lower, 2.48
- T22A — lower, 2.13
- T22L — lower, 1.96
- T22D — higher, 3.02
- T22I — lower, 2.39
- T22N — higher, 2.98
- T22K — lower, 2.32
- T22P — higher, 3.18
- T22V — lower, 1.68
- R1H — lower, 2.38
- R1I — lower, 1.15
- R1L — lower, 1.87
- R1T — higher, 2.56
- R1P — higher, 3.41
- R1G — lower, 1.95
- R1D — higher, 2.71
- R1Q — lower, 2.47
- R1S — lower, 2.38
- R1C — lower, 2.06
- R1E — higher, 3.06
- R1W — higher, 2.84
- R1Y — the same, 2.51
- R1M — lower, 1.79
- R1A — lower, 2.38
- Y13V — lower, 2.33
- Y13Q — higher, 3.01
- Y13I — higher, 3.12
- Y13E — higher, 3.29
- Y13H — lower, 2.42
- Y13F — lower, 1.93
- Y13K — higher, 2.92
- Y13M — higher, 2.57
- Y13A — higher, 2.9
- Y13L — lower, 2.15
- Y13C — higher, 3
- Y13N — higher, 3.57
- Y13P — higher, 2.75
- F19T — higher, 3.61
- F19Q — higher, 3.11
- F19L — higher, 2.92
- F19K — higher, 3.12
- F19M — higher, 2.82
- F19Y — higher, 2.61
- F19D — higher, 4.07
- F19R — higher, 3.81
- F19V — higher, 2.71
- F19E — higher, 3.38
- F19C — higher, 3.08
- F19N — higher, 3.22
- F19P — higher, 3.47
- V18Q — higher, 3.1
- V18S — higher, 3.06
- V18N — higher, 2.97
- V18P — lower, 2.31
- V18I — lower, 2.09
- V18T — higher, 2.73
- V18Y — higher, 3.3
- V18K — lower, 2.25
- V18W — lower, 1.92
- V18L — lower, 1.8
- V18C — higher, 2.58
- V18M — lower, 2.29
- V18D — higher, 3.57
- V18A — lower, 2.46
- V18E — higher, 3.62
- V18R — higher, 2.66
- V18G — higher, 3.16
- Q21P — lower, 2.49
- Q21C — lower, 1.75
- Q21K — higher, 2.66
- Q21I — lower, 1.65
- Q21T — lower, 2.42
- Q21G — lower, 2.27
- Q21W — lower, 1.82
- Q21R — higher, 2.62
- Q21N — lower, 2.26
- Q21D — higher, 3.06
- Q21L — lower, 1.7
- Q21V — lower, 1.11
- Q21H — higher, 2.79
- Q21F — lower, 2.21
- Q21Y — lower, 1.51
- Q21S — higher, 2.74
- G23R — higher, 2.83
- G23S — lower, 2.5
- G23Q — lower, 2.28
- G23A — lower, 2.34
- G23T — lower, 2.06
- G23C — lower, 1.6
- G23W — lower, 1.6
- G23Y — lower, 1.86
- G23M — lower, 1.63
- G23E — lower, 2.5
- G23D — higher, 2.83
- G23P — lower, 2.35
- G23N — higher, 2.57
- P11E — higher, 3.13
- P11M — lower, 2.18
- P11K — higher, 2.59
- P11C — higher, 2.57
- P11R — lower, 1.8
- P11G — higher, 3
- P11S — higher, 2.63
- P11F — lower, 1.85
- P11A — higher, 2.64
- P11Q — lower, 2.49
- P11V — lower, 1.89
